# Experiments:
# AncSZ = assay: phosphorylation enrichment, bacterial display (enrichment ratio); higher = better substrate or ligand; peptides without Tyr show the background
# EPHB1 = EPHB1 (UniProt P54762); assay: as above
# EPHB2 = EPHB2 (UniProt P29323); assay: as above
# FGFR1 = FGFR1 (UniProt P11362); assay: as above
# FGFR3 = FGFR3 (UniProt P22607); assay: as above
# Fer (mouse) = assay: as above
# Fes = Fes (UniProt P07332); assay: as above
# Fyn = Fyn (UniProt P06241); assay: as above
# Hck = Hck (UniProt P08631); assay: as above
# Sequence of Hck (P08631 whole entry, looked up): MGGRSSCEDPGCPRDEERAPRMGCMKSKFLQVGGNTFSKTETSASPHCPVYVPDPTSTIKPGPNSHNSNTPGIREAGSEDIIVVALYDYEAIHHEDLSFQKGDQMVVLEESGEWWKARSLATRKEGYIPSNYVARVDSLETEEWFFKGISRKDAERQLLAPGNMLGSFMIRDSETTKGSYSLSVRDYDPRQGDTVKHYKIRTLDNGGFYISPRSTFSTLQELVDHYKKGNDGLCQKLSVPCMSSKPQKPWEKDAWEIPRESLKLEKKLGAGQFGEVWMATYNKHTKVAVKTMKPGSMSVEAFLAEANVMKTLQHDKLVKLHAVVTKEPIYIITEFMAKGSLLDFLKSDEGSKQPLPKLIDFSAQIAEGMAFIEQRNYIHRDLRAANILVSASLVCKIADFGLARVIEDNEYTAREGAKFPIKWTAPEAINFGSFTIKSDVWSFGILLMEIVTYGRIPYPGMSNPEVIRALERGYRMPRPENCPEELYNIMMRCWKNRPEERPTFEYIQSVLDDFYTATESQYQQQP
# Jak2 = Jak2 (UniProt O60674); assay: as above
# MERTK = MERTK (UniProt Q12866); assay: as above
# Sequence of MERTK (Q12866 whole entry, looked up): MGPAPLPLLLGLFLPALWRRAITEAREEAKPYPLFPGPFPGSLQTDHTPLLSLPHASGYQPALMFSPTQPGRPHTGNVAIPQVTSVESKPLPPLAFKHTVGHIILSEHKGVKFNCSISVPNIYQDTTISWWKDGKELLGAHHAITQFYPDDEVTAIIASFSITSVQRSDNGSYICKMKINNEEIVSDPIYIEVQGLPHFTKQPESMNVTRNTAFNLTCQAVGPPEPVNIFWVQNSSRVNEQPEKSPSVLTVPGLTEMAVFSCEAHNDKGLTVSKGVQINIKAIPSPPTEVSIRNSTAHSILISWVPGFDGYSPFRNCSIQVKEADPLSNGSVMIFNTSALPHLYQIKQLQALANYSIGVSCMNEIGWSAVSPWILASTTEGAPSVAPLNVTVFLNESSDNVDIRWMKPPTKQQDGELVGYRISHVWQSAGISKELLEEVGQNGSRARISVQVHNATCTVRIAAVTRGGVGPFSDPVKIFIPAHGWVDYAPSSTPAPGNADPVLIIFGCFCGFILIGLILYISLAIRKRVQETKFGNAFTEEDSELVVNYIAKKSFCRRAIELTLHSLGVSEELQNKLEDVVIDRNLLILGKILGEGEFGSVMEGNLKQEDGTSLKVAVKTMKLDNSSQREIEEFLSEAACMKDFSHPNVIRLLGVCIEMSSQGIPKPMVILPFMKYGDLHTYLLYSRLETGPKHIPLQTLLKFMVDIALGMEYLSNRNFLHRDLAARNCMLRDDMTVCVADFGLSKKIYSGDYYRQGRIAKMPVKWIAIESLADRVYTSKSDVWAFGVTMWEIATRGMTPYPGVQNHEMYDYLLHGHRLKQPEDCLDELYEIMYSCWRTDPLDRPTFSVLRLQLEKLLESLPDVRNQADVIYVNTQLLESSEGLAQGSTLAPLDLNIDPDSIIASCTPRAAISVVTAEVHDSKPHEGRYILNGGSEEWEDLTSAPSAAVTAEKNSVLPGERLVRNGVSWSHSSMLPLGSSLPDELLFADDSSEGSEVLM
# c-Abl (mouse) = assay: as above
# c-Src = assay: as above
# Grb2 SH2 = Grb2 SH2 (UniProt P62993); assay: SH2 binding enrichment of the phosphorylated peptide, bacterial display (enrichment ratio); higher = better substrate or ligand; peptides without Tyr show the background
# SHP2-C SH2 = assay: as above
# c-Src SH2 = assay: as above
# 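Throughout, for SH2 binding enrichment of the phosphorylated peptide, bacterial display: peptide library displayed on the E. coli surface as eCPX fusions, selected cells deep-sequenced, score is each peptide's frequency after selection divided by its frequency in the input.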
# 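Throughout, for phosphorylation enrichment, bacterial display: 11-residue human phosphosite peptides and single-mutation variants displayed on the E. coli surface, counted by deep sequencing, each peptide's frequency after selection divided by its frequency in the unselected input library; frequency after pTyr selection over input frequency; kinase dosed for 20-30% of maximal phosphorylation in three min.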
# Sequence of FGFR1 (P11362 whole entry, looked up): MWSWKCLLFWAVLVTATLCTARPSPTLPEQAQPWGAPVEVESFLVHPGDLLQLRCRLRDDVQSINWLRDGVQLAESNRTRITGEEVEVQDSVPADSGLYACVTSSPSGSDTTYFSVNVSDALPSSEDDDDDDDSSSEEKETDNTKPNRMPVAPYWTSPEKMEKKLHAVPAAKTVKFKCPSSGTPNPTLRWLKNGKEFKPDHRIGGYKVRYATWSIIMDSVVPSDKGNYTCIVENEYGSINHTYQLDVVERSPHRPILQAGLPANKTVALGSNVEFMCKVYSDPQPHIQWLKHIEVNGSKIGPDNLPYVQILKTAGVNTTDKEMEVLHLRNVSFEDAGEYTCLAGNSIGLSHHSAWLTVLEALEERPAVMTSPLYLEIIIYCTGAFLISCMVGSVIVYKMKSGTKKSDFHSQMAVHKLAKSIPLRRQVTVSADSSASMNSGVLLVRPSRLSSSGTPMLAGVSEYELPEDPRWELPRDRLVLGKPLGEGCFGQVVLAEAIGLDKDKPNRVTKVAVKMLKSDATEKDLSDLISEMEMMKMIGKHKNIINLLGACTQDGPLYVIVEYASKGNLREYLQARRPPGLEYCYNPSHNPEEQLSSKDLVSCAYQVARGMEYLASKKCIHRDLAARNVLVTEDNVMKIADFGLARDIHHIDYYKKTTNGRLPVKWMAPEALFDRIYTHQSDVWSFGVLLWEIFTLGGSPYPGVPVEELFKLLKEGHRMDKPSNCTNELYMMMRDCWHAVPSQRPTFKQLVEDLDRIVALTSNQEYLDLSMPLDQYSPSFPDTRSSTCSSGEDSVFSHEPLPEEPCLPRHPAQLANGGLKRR
# Sequence of EPHB1 (P54762 whole entry, looked up): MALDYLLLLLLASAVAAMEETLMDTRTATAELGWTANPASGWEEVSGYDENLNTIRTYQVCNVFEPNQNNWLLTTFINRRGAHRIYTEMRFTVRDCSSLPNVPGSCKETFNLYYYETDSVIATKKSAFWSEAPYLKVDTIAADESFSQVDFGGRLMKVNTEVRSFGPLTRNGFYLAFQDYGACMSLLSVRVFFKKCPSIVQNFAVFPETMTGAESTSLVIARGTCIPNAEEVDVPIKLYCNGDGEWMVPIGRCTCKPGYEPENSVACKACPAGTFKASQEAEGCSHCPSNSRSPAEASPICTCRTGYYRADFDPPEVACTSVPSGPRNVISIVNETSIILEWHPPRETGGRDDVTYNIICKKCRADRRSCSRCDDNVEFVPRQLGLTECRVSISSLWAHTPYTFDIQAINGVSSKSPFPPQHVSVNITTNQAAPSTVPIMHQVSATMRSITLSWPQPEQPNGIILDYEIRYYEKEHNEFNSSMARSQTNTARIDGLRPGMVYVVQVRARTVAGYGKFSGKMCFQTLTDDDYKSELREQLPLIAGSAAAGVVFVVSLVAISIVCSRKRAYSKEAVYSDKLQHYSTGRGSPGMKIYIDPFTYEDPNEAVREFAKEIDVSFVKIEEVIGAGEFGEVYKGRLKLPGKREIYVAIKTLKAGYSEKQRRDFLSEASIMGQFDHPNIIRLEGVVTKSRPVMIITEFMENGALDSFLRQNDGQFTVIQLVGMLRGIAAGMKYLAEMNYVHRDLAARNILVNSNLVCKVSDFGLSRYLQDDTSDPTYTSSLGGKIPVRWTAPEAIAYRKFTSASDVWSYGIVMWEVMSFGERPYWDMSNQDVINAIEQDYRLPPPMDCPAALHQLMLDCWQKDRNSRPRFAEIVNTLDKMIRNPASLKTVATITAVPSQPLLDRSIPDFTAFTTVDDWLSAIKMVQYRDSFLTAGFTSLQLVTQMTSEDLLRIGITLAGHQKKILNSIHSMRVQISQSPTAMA
# Sequence of FGFR3 (P22607 whole entry, looked up): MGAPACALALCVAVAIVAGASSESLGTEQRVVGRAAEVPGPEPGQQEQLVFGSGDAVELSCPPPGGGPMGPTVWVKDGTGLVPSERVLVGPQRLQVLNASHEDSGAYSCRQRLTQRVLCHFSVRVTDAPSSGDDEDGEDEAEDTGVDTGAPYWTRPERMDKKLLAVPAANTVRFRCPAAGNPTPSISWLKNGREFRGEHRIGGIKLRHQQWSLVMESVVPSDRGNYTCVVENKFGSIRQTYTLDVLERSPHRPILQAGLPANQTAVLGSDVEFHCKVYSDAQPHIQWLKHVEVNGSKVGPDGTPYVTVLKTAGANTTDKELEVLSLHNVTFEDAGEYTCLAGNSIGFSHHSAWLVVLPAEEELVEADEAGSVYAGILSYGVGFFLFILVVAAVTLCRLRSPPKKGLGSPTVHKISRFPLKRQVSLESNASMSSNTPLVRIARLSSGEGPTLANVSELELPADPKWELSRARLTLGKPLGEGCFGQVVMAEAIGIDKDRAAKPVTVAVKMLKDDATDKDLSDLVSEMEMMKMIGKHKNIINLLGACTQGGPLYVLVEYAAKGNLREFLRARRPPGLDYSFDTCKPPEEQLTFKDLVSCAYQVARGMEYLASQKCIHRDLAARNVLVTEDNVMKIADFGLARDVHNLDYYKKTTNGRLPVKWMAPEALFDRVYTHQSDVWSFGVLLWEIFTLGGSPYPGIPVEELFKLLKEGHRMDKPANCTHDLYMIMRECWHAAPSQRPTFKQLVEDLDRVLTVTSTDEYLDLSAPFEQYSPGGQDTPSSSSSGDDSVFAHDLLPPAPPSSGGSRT
# Sequence of Fyn (P06241 whole entry, looked up): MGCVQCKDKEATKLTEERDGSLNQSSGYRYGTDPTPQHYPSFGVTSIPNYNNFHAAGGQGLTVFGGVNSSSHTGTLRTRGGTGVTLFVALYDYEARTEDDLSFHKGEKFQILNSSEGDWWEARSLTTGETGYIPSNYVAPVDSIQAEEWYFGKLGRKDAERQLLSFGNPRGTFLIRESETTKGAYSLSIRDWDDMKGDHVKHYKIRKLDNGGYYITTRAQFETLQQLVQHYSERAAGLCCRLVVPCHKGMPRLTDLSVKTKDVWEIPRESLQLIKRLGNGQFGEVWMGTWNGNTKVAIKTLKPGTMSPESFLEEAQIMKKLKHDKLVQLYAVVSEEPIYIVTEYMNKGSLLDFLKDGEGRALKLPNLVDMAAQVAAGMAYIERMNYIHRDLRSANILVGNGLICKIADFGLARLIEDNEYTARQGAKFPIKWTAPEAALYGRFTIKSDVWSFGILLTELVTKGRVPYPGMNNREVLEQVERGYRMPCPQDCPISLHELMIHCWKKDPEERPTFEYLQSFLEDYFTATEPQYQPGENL
SH2 binding enrichment (Grb2 SH2),SH2 binding enrichment (SHP2-C SH2),SH2 binding enrichment (c-Src SH2),Sequence,phosphorylation enrichment (AncSZ),phosphorylation enrichment (EPHB1),phosphorylation enrichment (EPHB2),phosphorylation enrichment (FGFR1),phosphorylation enrichment (FGFR3),phosphorylation enrichment (Fer (mouse)),phosphorylation enrichment (Fes),phosphorylation enrichment (Fyn),phosphorylation enrichment (Hck),phosphorylation enrichment (Jak2),phosphorylation enrichment (MERTK),phosphorylation enrichment (c-Abl (mouse)),phosphorylation enrichment (c-Src)
0.9,0.604,0.523,YLEKYYKFGSR [NNMT_Y25],0.69,0.453,0.48,0.524,0.553,0.508,0.779,0.501,0.473,0.604,0.407,0.59,0.654
0.64,1.1,0.78,LQRCKYSHMEP [TEX45_Y434],1.21,0.513,0.876,0.663,0.957,0.582,1.35,0.375,0.672,1.5,0.614,1.16,0.982
0.703,0.607,0.484,MEYAKYGSLRG [RET_Y809_V804M],0.622,0.569,0.465,0.461,0.458,0.431,0.605,1.14,1.29,0.536,0.436,0.474,1.9
1.04,0.498,0.641,RSACTYLASHL [PLK3_Y615],0.703,0.534,0.641,0.509,0.792,0.519,0.909,0.468,0.4,0.575,0.433,0.564,0.417
0.93,0.851,0.652,DMLFQYLKQIE [RPAP3_Y569_YF],1.48,0.684,0.588,0.531,0.59,0.462,1.22,0.421,0.571,0.976,0.523,0.577,0.468
1.06,0.622,0.429,DLDTEYGSGFP [RNASEH2A_Y206_D205E_YF],1.55,0.676,0.642,0.622,0.958,0.799,1.34,0.744,0.654,1.39,0.469,1.27,0.825
0.656,0.777,0.476,IENKLCGMSDP [RET_Y1062_Y1062C],0.987,0.693,0.652,0.687,0.774,0.536,1.09,0.522,0.562,0.775,0.428,0.625,0.412
0.931,0.647,0.541,HVEAVYIDIAD [PITPNA_Y140],1.39,2.52,1.27,5.13,2.96,2.23,1.18,1.14,0.837,0.922,0.708,0.831,1.87
0.904,0.821,0.908,YLENYYDLKKD [MMP3_Y42],1.83,6.01,3.03,9.43,7.09,0.759,1.27,3.76,3.17,1.61,1.81,0.957,2.31
0.938,1.1,1.45,SLFNGYVFSGM [NEIL3_Y71_V76M_YF],0.954,0.532,0.541,0.487,0.629,0.504,1.07,0.421,0.531,1.08,0.435,0.697,0.482
0.957,0.737,1.75,DPHQQYYIAMD [TBX15_Y159],1.05,0.735,0.593,6.27,4.36,0.52,0.881,0.625,0.669,0.996,2.7,0.59,1.55
0.775,0.584,0.494,AEEEIYGIFGA [SRCtide_2014],2.1,1.36,1.36,0.615,0.89,3,1.31,5.63,4.39,1.35,3.88,3.69,4.49
0.77,1.01,0.46,RLSARYFQGDL [PDK3_Y337_Y334S],0.563,0.393,0.342,0.436,0.492,0.312,0.684,0.399,0.362,0.718,0.41,0.649,0.469
0.894,0.828,0.494,VEDDMYRKTCT [XPA_Y257_L252V],1.33,0.676,0.636,0.559,0.868,0.696,1.3,0.602,0.626,1.33,0.507,0.932,0.544
0.727,1,1.79,FDCGMYSHLQG [LGR4_Y848_YF],1.37,1.08,0.969,0.89,1,1.64,1.31,0.985,3.54,1.18,4.74,1.07,3.25
1.12,0.834,0.683,MHDKEYFSVHN [MET_Y1234_Y1230H_YF],0.954,0.554,0.619,1.4,0.969,0.497,0.741,0.53,0.494,0.921,0.449,0.737,0.487
1.06,0.934,0.618,CDFKKYGKGLR [ZNF445_Y433_Y428C_YF],0.647,0.409,0.413,0.432,0.549,0.31,0.808,0.479,0.357,0.718,0.396,0.64,0.441
0.762,0.889,0.466,TGDFGYRTPGY [TNS2_Y668_A670T],0.524,0.4,0.423,0.404,0.465,0.342,0.651,0.479,0.394,0.484,0.481,0.459,0.432

# Continued, sequence first:
Sequence,SH2 binding enrichment (Grb2 SH2),SH2 binding enrichment (SHP2-C SH2),SH2 binding enrichment (c-Src SH2),phosphorylation enrichment (AncSZ),phosphorylation enrichment (EPHB1),phosphorylation enrichment (EPHB2),phosphorylation enrichment (FGFR1),phosphorylation enrichment (FGFR3),phosphorylation enrichment (Fer (mouse)),phosphorylation enrichment (Fes),phosphorylation enrichment (Fyn),phosphorylation enrichment (Hck),phosphorylation enrichment (Jak2),phosphorylation enrichment (MERTK),phosphorylation enrichment (c-Abl (mouse)),phosphorylation enrichment (c-Src)
ANFTEYVATSW [CDKL5_Y171_R175S_YF],0.757,0.809,0.545,0.983,0.841,0.988,1.03,0.983,0.505,1.03,0.555,0.511,0.974,0.512,0.892,0.578
LPEENYQVLCF [ARHGAP1_Y365_R369C],0.739,0.49,0.82,3.61,9.13,5.96,8.04,5.59,7.5,3.56,1.64,4.43,5.17,3.58,3.14,5.73
ANNEFYFQVCA,0.741,0.662,0.337,1.26,0.656,0.588,0.755,0.939,0.601,1.37,0.478,0.536,1.25,0.43,0.818,0.486
FSVDSYDSSVR [KCNQ1_Y461_G460S],1.02,0.865,0.718,0.734,0.451,0.87,0.44,0.548,0.498,1.39,0.474,0.47,0.693,0.406,0.523,0.474
DNLNNYVFQGQ [GRIN2A_Y978],0.819,0.617,0.438,1.21,1.77,1.17,0.703,0.789,0.514,1.06,0.593,0.392,1.01,0.657,0.815,0.598
SVKVYYKKCWS [EPHA7_Y202],0.716,0.521,0.393,0.951,0.549,0.432,0.414,0.733,0.483,1.25,0.352,0.424,1.21,0.379,1.2,0.432
TFRPPYYHRDC [HGD_Y333_N337D],1.04,1.2,1.05,1.17,0.834,0.734,0.874,1.12,0.756,1.28,0.658,0.822,0.82,0.499,0.639,0.583
ETDTRYFDEEF [AKT1_Y437],0.902,0.916,0.775,1.32,0.633,0.714,0.567,0.81,0.563,1.29,0.544,0.665,1.37,0.527,0.875,0.679
RRNTFYASIAK [ACADM_Y353_YF],0.772,1.68,1.09,0.605,0.453,0.455,0.442,0.583,0.367,0.622,0.482,0.463,0.511,0.474,0.509,0.638
MSRLKYPVSQQ [BTK_Y375_I370M],1.03,0.78,0.608,0.573,0.413,0.741,0.434,0.621,0.375,0.706,0.473,0.435,0.54,0.478,0.573,0.491
FPKARYHWLVL [APTX_Y214_YF],1.5,1.94,1.42,1.03,0.588,0.457,0.645,0.777,0.675,0.945,0.491,0.53,0.772,0.731,0.647,0.39
LRVHSYKSMQP [DRC7_Y516],1.25,0.957,0.607,0.797,0.526,0.515,0.479,0.671,0.565,0.769,0.567,0.684,0.476,0.423,0.785,0.55
DSSIRYLQEIH [FGG_Y135_Y140H],0.705,0.667,0.499,0.597,0.378,0.402,0.384,0.509,0.33,0.667,0.388,0.356,0.561,0.369,0.524,0.347
GLGGGCGGASG [KRT8_Y54_Y54C],0.944,0.712,0.525,0.582,0.465,0.499,0.494,0.544,0.449,0.817,0.433,0.505,0.508,0.384,0.444,0.404
TRSFDYMEGGD [FGF7_Y58_YF],1.07,0.791,0.576,1.03,0.487,0.544,0.617,0.674,0.416,1.18,0.535,0.599,1.05,0.613,0.761,0.446

# — the supplement of paper PMC10065799, “High-throughput profiling of sequence recognition by tyrosine kinases and SH2 domains using bacterial peptide display” (eLife, 2023)
